{
  "source": "paper PMC4910529",
  "about": "(The EMBO Journal, 2016)",
  "molecules": {"B1": {"name": "SPOP^28–359 (speckle‐type POZ protein, residues 28–359) (domain or fragment)", "chain": "KVVKFSYMWTINNFSFCREEMGEVIKSSTFSSGANDKLKWCLRVNPKGLDEESKDYLSLYLLLVSCPKSEVRAKFKFSILNAKGEETKAMESQRAYRFVQGKDWGFKKFIRRDFLLDEANGLLPDDKLTLFCEVSVVQDSVNISGQNTMNMVKVPECRLADELGGLWENSRFTDCCLCVAGQEFQAHKAILAARSPVFSAMFEHEMEESKKNRVEINDVEPEVFKEMMCFIYTGKAPNLDKMADDLLAAADKYALERLKVMCEDALCSNLSVENAAEILILADLHSADQLKTQAVDFINYHASDVLETSGWKSMVVSHPHLVAEAYRSLASA"}, "B2": {"name": "SPOP mutBACK (SPOP 28–359 Y353E) (domain or fragment)", "chain": "B1 chain with Y326E"}, "B3": {"name": "Puc peptide, residues 91–107 of Puckered, fluorescein-labelled (peptide)", "peptide": "ENLACDEVTSTTSSSST-NH2", "modifications": "not fully specified (N-terminus)"}, "B4": {"name": "SPOP ΔBACK (domain or fragment)", "chain": "KVVKFSYMWTINNFSFCREEMGEVIKSSTFSSGANDKLKWCLRVNPKGLDEESKDYLSLYLLLVSCPKSEVRAKFKFSILNAKGEETKAMESQRAYRFVQGKDWGFKKFIRRDFLLDEANGLLPDDKLTLFCEVSVVQDSVNISGQNTMNMVKVPECRLADELGGLWENSRFTDCCLCVAGQEFQAHKAILAARSPVFSAMFEHEMEESKKNRVEINDVEPEVFKEMMCFIYTGKAPNLDKMADDLLAAADKYALERLKVMCEDALCSNLSVENAAEILILADLHSADQLKTQAVDFINYHASDVLETSG"}},
  "key": {"[1]": {"molecular_target": "SPOP X‐BACK", "assay": "CG-MALS"}, "[2]": {"molecular_target": "SPOP mutBACK (SPOP 28–359 Y353E) (UniProt O43791)", "assay": "cross-linking"}, "[3]": {"molecular_target": "SPOP mutBACK (SPOP 28–359 Y353E) (UniProt O43791)", "assay": "CG-MALS"}, "[4]": {"molecular_target": "SPOP mutBTB (SPOP 28–359 L186D L190D L193D I217K) (UniProt O43791)", "assay": "AUC"}, "[5]": {"molecular_target": "SPOP mutBTB (SPOP 28–359 L186D L190D L193D I217K) (UniProt O43791)", "assay": "CG-MALS"}, "[6]": {"molecular_target": "the molecule itself", "assay": "native MS"}, "[7]": {"molecular_target": "the molecule itself", "assay": "CG-MALS"}, "[8]": {"molecular_target": "B1", "assay": "SEC"}, "[9]": {"molecular_target": "B2", "assay": "fluorescence polarisation"}, "[10]": {"molecular_target": "the molecule itself", "assay": "cross-linking"}},
  "note": "Substitutions are numbered along the chain they refer to. Names and notes keep the numbering of the source. Where no end group is shown, it is not given here.",
  "data": [
    {"molecule": "SPOP X‐BACK", "values": [
      {"measurement": "Kd", "setting": "[1]", "value": 118, "unit": "µM"}
    ]},
    {"molecule": "SPOP mutBACK (SPOP 28–359 Y353E) (from UniProt O43791 28-359) (domain or fragment)", "values": [
      {"measurement": "stoichiometry N", "setting": "[2]", "value": 2},
      {"measurement": "stoichiometry N", "setting": "[3]", "value": 2}
    ]},
    {"molecule": "SPOP mutBTB (SPOP 28–359 L186D L190D L193D I217K) (from UniProt O43791 28-359) (domain or fragment)", "values": [
      {"measurement": "Kd", "setting": "[4]", "value": 32.5, "unit": "µM"},
      {"measurement": "Kd", "setting": "[5]", "value": 36, "unit": "µM"},
      {"measurement": "stoichiometry N", "setting": "[5]", "value": 2}
    ]},
    {"molecule": "B1", "values": [
      {"measurement": "stoichiometry N", "setting": "[6]", "value": 8},
      {"measurement": "Kd", "setting": "[7]", "value": 2.4, "unit": "µM"}
    ]},
    {"molecule": "B2", "values": [
      {"measurement": "binding result", "setting": "[8]", "value": "binds"}
    ]},
    {"molecule": "B3", "values": [
      {"measurement": "Kd", "setting": "[9]", "value": 4.1, "unit": "µM"}
    ]},
    {"molecule": "B4", "values": [
      {"measurement": "stoichiometry N", "setting": "[10]", "value": 2}
    ]}
  ]
}
